Experimental data published in the supplement of paper PMC9170038.

System: MS2 coat protein
Assay: apparent KD of MS2 coat protein; higher = weaker reporter binding
Conditions: Eterna round: R107; input ligand: theophylline 20 uM
In short: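 Designed RNA switches were transcribed on-chip from Illumina sequencing clusters. They were then titrated with SNAP-549-labelled MS2 coat protein (twofold steps, 0.7 or 1.5 nM to 3 µM; 0.8–1.5 h to 10–20 min per step) in 100 mM Tris-HCl pH 7.5, 80 mM KCl, 4 mM MgCl2, without or with constant ligand. Apparent KD is the per-design median of normalised cluster binding-curve fits.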

| Sequence | apparent KD of MS2 coat protein [nM] |
| --- | --- |
| CCUUACGUUGGGCAGCCAGUUCGAAGUGAUACCAGUCACAAAAGUGACCCUUGGCAGCACCGCACAUGAGGAUCACCCAUGUCUA [SSThA NP+V+V2 #8 Same Structure] | 55.1 |
| GAGCUCGUGGACUGGCGUGCUCCGCUCCGUCGAGGACCGGUACGGCCGCCACUCGACAUGAGGAUCACCCAUGUGUGAGCUCGCU [#1 Exclusion - Tryptophan A Attempt #21 (HarryS)] | 185 |
| GCUUGGGUCGCAAGGCCCUGGCGUUGCGAUACCAGCACGGUAACGUGCCCUUGGCAGCGCACAUGAGGAUCACCCAUGUGGUGCG [#1 Exclusion - Theophylline A Attempt #22 (HarryS)] | 27.8 |
| AGGGAAUGAAUAGAAUGAGAUGACACAGAAGGAGCGCCGAUUAAGGCAGGUAGGUCGCUGACAACAUGAGGAUCACCCAUGUUAA [#11 Same State - Arginine A] | 14.1 |
| UCGCGAUAGAGAAGGAGCGUCAACACCACAGAACAUGAGGAUCACCCAUGUGUUACUUUUAGACAGGUAGGUCGCUCUAGCGCUU [JR_Nu_ExcArginiB_Sub028] | 18.3 |
| ACAUGAGGAUCACCCAUGUUAAACAGGGUGCGAGGACCGGUACGGCCGCCACUCGGACAUUAUUACGAGUGAAUGGUAACGAUGU [#13 Exclusion Tryptophan A] | 33.6 |
| AUCGUACCUGAUGAUACCAGCAUGUGAUCAUAACAUGAGGAUCACCCAUGUAAUCAGUGAUGCCCUUGGCAGCAUGAUCGGUACA [Same State - Theophylline B (Freestyle 13)] | 79.6 |
| AUACAUGAGGAUCACCCAUGUCACACAGAAGGAGCGGCUGUAGAGCCAGGUAGGUCGCUGUACUCAAAAUACUUCAUACUCAUGU [JR_Nu_ExcArginiA_Sub033] | 34.7 |
| GCAUCCUAGUCGGCCGCCACUGGUACGAACACCUUCACCCGUGUGCACAUGAGGAUCACCCAUGUUAGGACCGGGACUAGGAUGC [SSTryp B #21] | 11 |
| AUAAGUAAGUUUUCGUGUUUUAUUACAGAUACCAGACUAUACGUUGUCCCUUGGCAGCUGGAUUACAUGAGGAUCACCCAUGUUG [#25 Exclusion-TheophyllineA] | 33.9 |
| GUUAGUUACACGGCCGCCACUCUUUGGCUUGGCUCAAGCUCCCAACAUGAGGAUCACCCAUGUCAGAGGACCGGGUGAACAACGU [theeternabot_sameState_MS2_Trp_B_28] | 180 |
| UUCGUUUGCGGAAGGAGCGACGGACAUCGGUGAACGACGCACAUGAGGAUCACCCAUGUACGUCAGGUAGGUCGCCGCUAAGAGU [Tibira] | 22.3 |
| UGACAUUGCUCAGAUACCAGACAUGAGGAUCACCCAUGUACCAAGAGUACAAAUUAAAAUGUCCCUUGGCAGCUGAGCAAUGUCU [TheoBX 7 #MS2Left #Theo2] | 37.8 |
| GUCAGUUCUCAUGAUACCAGACCUGCCUCGGACAUGAGGAUCACCCAUGUACCCAAGCGAGUCCCUUGGCAGCAUGUGGCUUAAA [Ririatre] | 19.4 |
| UCACGACGCAACGUGAAAUAAUAAACAGAAGGAGCGAGGAAAGCCUCAGGUAGGUCGCUGACAUGAGGAUCACCCAUGUAUUACA [Same State Arginine A GF5] | 41.2 |
| CUCUGAGUGAGCAAUCACUCAGAGGCGGAUACCAGCGAGGUCCAUCGCCCUUGGCAGCCGAACAUGAGGAUCACCCAUGUCGGUA [#1 Same State - Theophylline A Attempt #22 (HarryS)] | 13 |
| UUCUUUAAGUCGGCCGCCACUGAAACAUGAGGAUCACCCAUGUAUAUUUGUGUAUAGGUGGAUUACAGGACCGGGACUAUAGUAA [JR_ExcTryptoB_Sub023] | 20.2 |
| AAAAUCCUACCUGAGGAUCACCCAGGUGAAGGAGCGCCCGAAAGGGCAGGUAGGUCGCACCUGAGGAUCACCCUGGUACCUAAAA [ArgAX 27 #DoubleMs2 #OpenEnded #AlternativeMS2] | 85.8 |
| ACGACGCAUAGUGAUACCAGUAGAACAUGAGGAUCACCCAUGUCUGUGGCGCACCACCUCUGCCCUUGGCAGCACUAUGCGUCAG [SSTheo B #9] | 17.4 |

Same assay, conditions: Eterna round: R107; input ligand: theophylline 2 mM

| Sequence | apparent KD of MS2 coat protein [nM] |
| --- | --- |
| UGUAUGGACUGAAGGAGCGGGAAAUAAACCUGAGGAACACCCAGGUAAUAGGCGAAAGCCACCCAGGUAGGUCGCAGUCCAUACU | 14.4 |
| CCGGCCAGGGCGGCCGCCACUGAACGUGGAAGAAAGAAAACAUGAGGAUCACCCAUGUAAAUCCUCAGGACCGGGCCAGGGCCGG | 67 |
| AUCCCGUGAGCGGCCGCCACUGGAGGCUUUGCGCGACAUGAGGAUCACCCAUGUGUGCCCGGCGUUAGGACCGGGUUCGCGUGGA [#1 Same State - Tryptophan B Attempt #17 (HarryS)] | 65.1 |
| UAUGAGCGCACGGCCGCCACUGUCUUCAUCUGUUUGUCUACAUGAGGAUCACCCAUGUUGGUUUACAGGACCGGGUGCAACUAUG [SSTryp B #10] | 33.8 |
| GGCGUCGGGCGAAGGAGCGUGAAGACAUGAGGAUCACCCAUGUAGAGGCCCGGACAGGGUUCGCAGGUAGGUCGCGCGCGGUGCC [#1 Same State - Arginine B Attempt #7 (HarryS)] | 19.5 |
| ACAUGAGGAUCACCCAUGUGUGUAAGUUCUCGAGGACCGGUACGGCCGCCACUCGAACGAGUGUAACGUUAUACUUAGUAUAAUG [SS Trp A s4] | 15.2 |
| GUUGGUUUGCGAAGGAGCGGGUAUGUUUUCUACUGGAUCCUAACAUGAGGAUCACCCAUGUCCCAGGUAGGUCGCGCGGGCUUUG [12.aA] | 54.5 |
| GAGUAGAGGACGGCCGCCACUGAACAUGAGGAUCACCCAUGUCGUGAUCCGUUGCCUGAAGAAGAUAGGACCGGGUCAUGUGCUC [Exclusion Tryptophan B GF 20] | 31.8 |
| GGACGAAGUUUCUUGUCCGGUCGCUGAGAAGGAGCGCGGUAAACCGCAGGUAGGUCGCUCAGAAAUACAUGAGGAUCACCCAUGU [Orsosous] | 21.4 |
| UGAUCCUGCAGGGAUACCAGCGCCGCUAGAUAACUAUGCACAUGAGGAUCACCCAUGUAACGCCCUUGGCAGCCCAGCUAAAGGG [Same State Theophylline B GF22] | 31.3 |
| AACGUAUACAGAAGGAGCGUGAAAUAAGUAAAUUAAUAAUAAACAUGAGGAUCACCCAUGUCACAGGUAGGUCGCUGUAUUCGUA [JR_ExcArginiB_Sub017] | 21.5 |
| AUUGUGAAGUCGGCCGCCACUGGUUAGUUUAACCUCAUGUAACAUGAGGAUCACCCAUGUAAUGACAGGACCGGGACAAUAGUAA [JR_ExcTryptoB_Sub015] | 194 |
| AGUCACAUGAGGAUCACCCAUGUGCCAGAACGAGGACCGGUACGGCCGCCACUCGAGGCGUCCGUCGACAAUAAUGUGAACUGCA [theeternabot_sameState_MS2_Trp_A_48] | 11.6 |
| AGUCUUAUAGGAAGGAGCGCAAUCAUCACAUGAGGAUCACCCAUGUCAAGGUGAGAGUCAUUGCAGGUAGGUCGCCUAACUAAGA [Same State - Arginine B (Freestyle 9)] | 251 |
| UCUUCGUUGGCGUCACAAUUCAUGCAAUGCCGAGGACCGGUACGGCCGCCACUCGGACUAAUACAUGAGGAUCACCCAUGUCGUG [theeternabot_exclusion_MS2_Trp_A_5] | 219 |
| UGAACAUGAGGAUCACCCAUGUAGAGGGAAGGAGCGUCGAAGAAGACAGGUAGGUCGCCCAGAAAGAAAUCCUCAUGGAUAAGAA [Same State Arginine A GF2] | 122 |
| CCUUACGUUGGGCAGCCAGUUCGAAGUGAUACCAGUCACAAAAGUGACCCUUGGCAGCACCGCACAUGAGGAUCACCCAUGUCUA [SSThA NP+V+V2 #8 Same Structure] | 63.3 |
| GAGCUCGUGGACUGGCGUGCUCCGCUCCGUCGAGGACCGGUACGGCCGCCACUCGACAUGAGGAUCACCCAUGUGUGAGCUCGCU [#1 Exclusion - Tryptophan A Attempt #21 (HarryS)] | 390 |
| GCUUGGGUCGCAAGGCCCUGGCGUUGCGAUACCAGCACGGUAACGUGCCCUUGGCAGCGCACAUGAGGAUCACCCAUGUGGUGCG [#1 Exclusion - Theophylline A Attempt #22 (HarryS)] | 229 |
